According to publication PMC3245945 (Nucleic Acids Research, 2011):
Substitutions are numbered along the chain they refer to. In names and notes the source's numbering stands.

B1: WHY2, Solanum tuberosum Whirly protein located in the mitochondria (natural protein, Solanum tuberosum (potato))
chain: ADAGKREGRVFAPYSVFKGKAALSAEPRLPTFNRLDSGGVKLNRRGVIMLTFWPSVGERKYDWEKRQLFALSATEVGSLISMGTRDSSEFFHDPSMLSSNAGQVRKSLSIKPNADGSGYFISLSVVNNNLKTNDRFTVPVTTAEFAVMRTAFSFALPHIMGWDRFTNRP
B2: WHY2 K67A (natural protein, Solanum tuberosum (potato))
chain: B1 chain with K20A

Legend:
SEC = target: the molecule itself; assay: SEC
atomic force microscopy = target: the molecule itself; assay: atomic force microscopy
crystal structure = target: the molecule itself; assay: crystal structure

Protein | stoichiometry N (SEC) | stoichiometry N (atomic force microscopy) | stoichiometry N (crystal structure)
B1 | 4 | 24 | –
B2 | 4 | – | 24
